Experiments:
[1] = tested on: Arabidopsis thaliana T1 plants; experiment: Topramezone tolerance of transgenic Arabidopsis thaliana T1 plants (spray, bleached leaf area grade, damage score); type: in vivo; settings: for Classification and statistics of the grade of pesticide damage Grade 0: number of plants at grade 0; for Classification and statistics of the grade of pesticide damage Grade 1: number of plants at grade 1; for Classification and statistics of the grade of pesticide damage Grade 2: number of plants at grade 2; for Classification and statistics of the grade of pesticide damage Grade 3: number of plants at grade 3; for Classification and statistics of the grade of pesticide damage: Grade 0 / Classification and statistics of the grade of pesticide damage: Grade 1 / Classification and statistics of the grade of pesticide damage: Grade 2 / Classification and statistics of the grade of pesticide damage: Grade 3: number of plants; for Grade 0 (classification and statistics of the grade of pesticide damage; number of plants) / Grade 1 (classification and statistics of the grade of pesticide damage; number of plants) / Grade 2 (classification and statistics of the grade of pesticide damage; number of plants) / Grade 3 (classification and statistics of the grade of pesticide damage; number of plants): 16 plants
How it was run: (§1)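 Read-out: per-plant damage grade 0–3 from proportion of bleached leaf area at 7 DAT (1 <50%, 2 >50%, 3 100%). Plants were T1 transformants, glufosinate-selected, plus wild-type CK, sprayed 18 days post-sowing. Rates: topramezone 25–200, isoxaflutole 35–280, mesotrione 52.5–420 g ai/ha.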

[2] = tested on: Arabidopsis thaliana T1 plants; experiment: Mesotrione tolerance of transgenic Arabidopsis thaliana T1 plants (spray, bleached leaf area grade, damage score); type: in vivo; set-up: Scores: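 damage score 0-100 computed as Σ(N×S)/(T×M)×100 over grades 0-3 with higher meaning more damage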; settings: for Classification and statistics of the grade of pesticide damage: Grade 0 / Classification and statistics of the grade of pesticide damage: Grade 1 / Classification and statistics of the grade of pesticide damage: Grade 2 / Classification and statistics of the grade of pesticide damage: Grade 3: number of plants
How it was run: as §1

[3] = Table 10, topramezone 100 g ai/ha (4×)
[4] = Table 10, topramezone 200 g ai/ha (8×)
[5] = topramezone 100 g ai/ha (4×), 7 DAT, Table 1
[6] = topramezone 200 g ai/ha (8×), 7 DAT, Table 1
[7] = topramezone 100 g ai/ha (4x field concentration), Arabidopsis thaliana T1 plants
[8] = topramezone 200 g ai/ha (8x field concentration), Arabidopsis thaliana T1 plants
[9] = mesotrione 210 g ai/ha (two-fold field concentration), 7 DAT, Table 3
[10] = mesotrione 210 g ai/ha, number of plants in grade
[11] = mesotrione 420 g ai/ha (4×), 7 DAT, Table 3
[12] = mesotrione 420 g ai/ha, number of plants in grade

B1: AsHPPD-02: nucleotide sequence encoding Avena sativa wild-type HPPD; vector DBN11727 (nucleic acid)
DNA: ATGCCACCTACTCCAGCTACAGCTACTGGTGCTGCTGCTGCTGCCGTTACTCCTGAGCACGCTGCCAGGTCATTCCCCAGGGTGGTTCGCGTGAACCCCAGATCTGATAGGTTCCCAGTTCTGAGCTTCCACCATGTTGAGCTGTGGTGCGCTGATGCTGCTTCTGCTGCTGGCAGGTTCTCTTTCGCTCTTGGTGCTCCACTCGCTGCTAGATCTGATCTGTCTACAGGAAATAGCGCTCATGCCTCACTCCTGCTTCGCTCAGGTGCTTTGGCCTTCCTCTTCACCGCTCCATATGCTCCCCCACCTCAGGAGGCTGCTACTGCTGCTGCTACAGCCTCCATTCCAAGCTTCTCAGCTGATGCCGCTAGAACCTTCGCTGCTGCTCATGGACTTGCCGTGAGGTCTGTTGGTGTTCGCGTGGCTGATGCTGCTGAGGCTTTCAGAGTTTCCGTTGCCGGCGGAGCTAGGCCAGCTTTCGCTCCTGCTGATTTGGGACATGGTTTCGGCCTGGCTGAGGTTGAGCTTTACGGTGACGTGGTTCTCCGCTTCGTGTCTTACCCAGATGAGACTGACCTGCCTTTCCTTCCCGGCTTCGAGAGAGTTTCCTCTCCTGGTGCCGTGGATTACGGCCTGACAAGGTTCGACCACGTGGTTGGAAACGTTCCCGAGATGGCTCCAGTGATCGATTACATGAAGGGCTTCCTTGGATTCCATGAGTTCGCCGAGTTCACTGCTGAGGACGTGGGAACCACTGAGTCCGGTTTGAACTCTGTGGTTCTCGCCAACAATTCTGAGGCTGTTTTGCTCCCTCTGAATGAGCCTGTGCATGGAACCAAGAGGAGAAGCCAGATTCAAACTTACCTGGAGTACCACGGTGGCCCTGGAGTTCAGCATATCGCCCTTGCTTCTAATGATGTGTTGCGCACACTCAGAGAGATGCGCGCCAGAACCCCCATGGGAGGTTTCGAGTTCATGGCCCCACCACAGGCTAAGTACTACGAGGGCGTTAGAAGGATTGCTGGAGACGTGTTGAGCGAGGAGCAGATCAAGGAGTGCCAAGAGCTGGGTGTTCTTGTGGATAGGGATGACCAGGGCGTTCTGCTTCAAATTTTCACTAAGCCAGTGGGCGACCGCCCTACATTCTTCCTTGAGATGATTCAAAGAATCGGCTGCATGGAGAAGGATGAGGTTGGACAGGAGTACCAAAAGGGCGGATGCGGTGGCTTCGGAAAGGGTAACTTCAGCGAGTTGTTCAAGTCAATCGAGGACTACGAGAAGAGCCTCGAGGTGAAGCAGTCAGTGGTTGCCCAAAAGTCCTGA
modifications: AsHPPD-02 Nucleotide Sequence
notes: vector DBN11727
[1]; [3]
  Resistance evaluation: Non-resistant
  Classification and statistics of the grade of pesticide damage Grade 0: 0
  Classification and statistics of the grade of pesticide damage Grade 1: 0
  Classification and statistics of the grade of pesticide damage Grade 2: 4
  Classification and statistics of the grade of pesticide damage Grade 3: 12
[1]; Table 10, topramezone 100 g ai/ha (4×), pesticide damage score
  Scores: 92
[1]; [4]
  Resistance evaluation: Non-resistant
  Classification and statistics of the grade of pesticide damage Grade 0: 0
  Classification and statistics of the grade of pesticide damage Grade 1: 0
  Classification and statistics of the grade of pesticide damage Grade 2: 0
  Classification and statistics of the grade of pesticide damage Grade 3: 16
[1]; Table 10, topramezone 200 g ai/ha (8×), pesticide damage score
  Scores: 100
[1]; in vivo
  tolerance to topramezone (in words): no tolerance
[1]; [5]
  Classification and statistics of the grade of pesticide damage: Grade 0: 0
  Classification and statistics of the grade of pesticide damage: Grade 1: 0
  Classification and statistics of the grade of pesticide damage: Grade 2: 4
  Classification and statistics of the grade of pesticide damage: Grade 3: 12
  Resistance evaluation: non-resistant (non-resistant plants (scores 68-100))
[1]; [6]
  Classification and statistics of the grade of pesticide damage: Grade 0: 0
  Classification and statistics of the grade of pesticide damage: Grade 1: 0
  Classification and statistics of the grade of pesticide damage: Grade 2: 0
  Classification and statistics of the grade of pesticide damage: Grade 3: 16
  Resistance evaluation: non-resistant (non-resistant plants (scores 68-100))
[1]; pesticide damage score 0-100, topramezone 100 g ai/ha (4×), 7 DAT, Table 1
  Scores: 92
[1]; pesticide damage score 0-100, topramezone 200 g ai/ha (8×), 7 DAT, Table 1
  Scores: 100
[1]; [7]
  Resistance evaluation: Non-resistant
  Scores: 92
  Grade 0 (classification and statistics of the grade of pesticide damage; number of plants): 0
  Grade 1 (classification and statistics of the grade of pesticide damage; number of plants): 0
  Grade 2 (classification and statistics of the grade of pesticide damage; number of plants): 4
  Grade 3 (classification and statistics of the grade of pesticide damage; number of plants): 12
[1]; [8]
  Resistance evaluation: Non-resistant
  Scores: 100
  Grade 0 (classification and statistics of the grade of pesticide damage; number of plants): 0
  Grade 1 (classification and statistics of the grade of pesticide damage; number of plants): 0
  Grade 2 (classification and statistics of the grade of pesticide damage; number of plants): 0
  Grade 3 (classification and statistics of the grade of pesticide damage; number of plants): 16
[2]; Table 9, mesotrione 210 g ai/ha (2×)
  Resistance evaluation: Non-resistant
[2]; Table 9, mesotrione 210 g ai/ha (2×), number of plants at grade 0
  Classification and statistics of the grade of pesticide damage Grade 0: 0
[2]; Table 9, mesotrione 210 g ai/ha (2×), number of plants at grade 1
  Classification and statistics of the grade of pesticide damage Grade 1: 0
[2]; Table 9, mesotrione 210 g ai/ha (2×), number of plants at grade 2
  Classification and statistics of the grade of pesticide damage Grade 2: 0
[2]; Table 9, mesotrione 210 g ai/ha (2×), number of plants at grade 3
  Classification and statistics of the grade of pesticide damage Grade 3: 16
[2]; Table 9, mesotrione 210 g ai/ha (2×), pesticide damage score
  Scores: 100
[2]; Table 9, mesotrione 420 g ai/ha (4×)
  Resistance evaluation: Non-resistant
[2]; Table 9, mesotrione 420 g ai/ha (4×), number of plants at grade 0
  Classification and statistics of the grade of pesticide damage Grade 0: 0
[2]; Table 9, mesotrione 420 g ai/ha (4×), number of plants at grade 1
  Classification and statistics of the grade of pesticide damage Grade 1: 0
[2]; Table 9, mesotrione 420 g ai/ha (4×), number of plants at grade 2
  Classification and statistics of the grade of pesticide damage Grade 2: 0
[2]; Table 9, mesotrione 420 g ai/ha (4×), number of plants at grade 3
  Classification and statistics of the grade of pesticide damage Grade 3: 16
[2]; Table 9, mesotrione 420 g ai/ha (4×), pesticide damage score
  Scores: 100
[2]; Table 12, mesotrione 210 g ai/ha (2×)
  Resistance evaluation: Non-resistant
[2]; Table 12, mesotrione 210 g ai/ha (2×), number of plants at grade 0
  Classification and statistics of the grade of pesticide damage Grade 0: 0
[2]; Table 12, mesotrione 210 g ai/ha (2×), number of plants at grade 1
  Classification and statistics of the grade of pesticide damage Grade 1: 0
[2]; Table 12, mesotrione 210 g ai/ha (2×), number of plants at grade 2
  Classification and statistics of the grade of pesticide damage Grade 2: 0
[2]; Table 12, mesotrione 210 g ai/ha (2×), number of plants at grade 3
  Classification and statistics of the grade of pesticide damage Grade 3: 16
[2]; Table 12, mesotrione 210 g ai/ha (2×), pesticide damage score
  Scores: 100
[2]; Table 12, mesotrione 420 g ai/ha (4×)
  Resistance evaluation: Non-resistant
[2]; Table 12, mesotrione 420 g ai/ha (4×), number of plants at grade 0
  Classification and statistics of the grade of pesticide damage Grade 0: 0
[2]; Table 12, mesotrione 420 g ai/ha (4×), number of plants at grade 1
  Classification and statistics of the grade of pesticide damage Grade 1: 0
[2]; Table 12, mesotrione 420 g ai/ha (4×), number of plants at grade 2
  Classification and statistics of the grade of pesticide damage Grade 2: 0
[2]; Table 12, mesotrione 420 g ai/ha (4×), number of plants at grade 3
  Classification and statistics of the grade of pesticide damage Grade 3: 16
[2]; Table 12, mesotrione 420 g ai/ha (4×), pesticide damage score
  Scores: 100
[2]; in vivo
  tolerance to mesotrione (in words): no tolerance
[2]; mesotrione 210 g ai/ha
  Resistance evaluation: Non-resistant
  Scores: 100
[2]; [9]
  Resistance evaluation: non-resistant (non-resistant plants (scores 68-100))
  Classification and statistics of the grade of pesticide damage: Grade 0: 0
  Classification and statistics of the grade of pesticide damage: Grade 1: 0
  Classification and statistics of the grade of pesticide damage: Grade 2: 0
  Classification and statistics of the grade of pesticide damage: Grade 3: 16
[2]; [10]
  Classification and statistics of the grade of pesticide damage Grade 0: 0
  Classification and statistics of the grade of pesticide damage Grade 1: 0
  Classification and statistics of the grade of pesticide damage Grade 2: 0
  Classification and statistics of the grade of pesticide damage Grade 3: 16
[2]; mesotrione 420 g ai/ha
  Resistance evaluation: Non-resistant
  Scores: 100
[2]; [11]
  Resistance evaluation: non-resistant (non-resistant plants (scores 68-100))
  Classification and statistics of the grade of pesticide damage: Grade 0: 0
  Classification and statistics of the grade of pesticide damage: Grade 1: 0
  Classification and statistics of the grade of pesticide damage: Grade 2: 0
  Classification and statistics of the grade of pesticide damage: Grade 3: 16
[2]; [12]
  Classification and statistics of the grade of pesticide damage Grade 0: 0
  Classification and statistics of the grade of pesticide damage Grade 1: 0
  Classification and statistics of the grade of pesticide damage Grade 2: 0
  Classification and statistics of the grade of pesticide damage Grade 3: 16
[2]; pesticide damage score 0-100, mesotrione 210 g ai/ha (two-fold field concentration), 7 DAT, Table 3
  Scores: 100
[2]; pesticide damage score 0-100, mesotrione 420 g ai/ha (4×), 7 DAT, Table 3
  Scores: 100

— patent publication US20250043302A1, “MUTATED HYDROXYPHENYLPYRUVATE DIOXYGENASE POLYPEPTIDE, AND CODING GENE AND USE THEREOF” (BEIJING DABEINONG BIOTECHNOLOGY CO., LTD., priority 2021, published 2025)
